Data as given in the Human Domainome abundance scans (Beltran et al. 2025).
± gives the uncertainty stated by the source.

B1: Ankyrin-1, residues 1405 to 1484; numbered along this chain, P16157 (parent)
chain: MKMAVISEHLGLSWAELARELQFSVEDINRIRVENPNSLLEQSVALLNLWVIREGQNANMENLYTALQSIDRGEIVNMLE

Variants of: B1
Experiment: abundance fitness (aPCA) (normalised: wild type 0, dead -1); higher = more abundant; growth selection in yeast, the domain comes from the species named
Settings: Homo sapiens

N37E and N37T are within error of each other in abundance fitness: -0.005 ± 0.082 for the first, -0.111 ± 0.18 for the second.

Compared with N37W, L40R is higher in abundance fitness: -0.36 ± 0.18 for the first, 0.089 ± 0.059 for the second.

L40Y and L40Q are within error of each other in abundance fitness: -0.189 ± 0.11 for the first, -0.029 ± 0.17 for the second.

First: E54L
Second: E54P
The abundance fitness of the first is higher: -0.567 ± 0.076 for the first, -0.977 ± 0.25 for the second.

E54Q and E54S are within error of each other in abundance fitness: -0.118 ± 0.039 for the first, -0.136 ± 0.052 for the second.

R53Q and R53T are within error of each other in abundance fitness: -0.483 ± 0.11 for the first, -0.682 ± 0.18 for the second.

R53H and R53E are within error of each other in abundance fitness: -0.758 ± 0.23 for the first, -0.512 ± 0.1 for the second.

S69E and S69V are within error of each other in abundance fitness: -0.042 ± 0.068 for the first, 0.029 ± 0.044 for the second.

S69D and I52G are within error of each other in abundance fitness: -0.06 ± 0.087 for the first, -0.351 ± 0.35 for the second.

Going from Q42D to Q42M, the abundance fitness rises from -0.698 ± 0.17 to -0.172 ± 0.12.

A58H and A58E are within error of each other in abundance fitness: -0.241 ± 0.24 for the first, -0.192 ± 0.1 for the second.

I75R and I75D are within error of each other in abundance fitness: -0.915 ± 0.14 for the first, -0.54 ± 0.39 for the second.

I75M and A66K are within error of each other in abundance fitness: -0.256 ± 0.17 for the first, -0.263 ± 0.12 for the second.

First: A66L
Second: A66G
The abundance fitness of the first is lower: -0.977 ± 0.11 for the first, -0.197 ± 0.048 for the second.

First: A66C
Second: A66S
The abundance fitness of the first is higher: 0.016 ± 0.07 for the first, -0.26 ± 0.069 for the second.

First: A66Y
Second: L39F
The abundance fitness of the first is lower: -0.494 ± 0.11 for the first, -0.068 ± 0.14 for the second.

Q68A and Q68K are within error of each other in abundance fitness: -0.012 ± 0.058 for the first, 0.169 ± 0.14 for the second.

Q68N and V51F are within error of each other in abundance fitness: 0.003 ± 0.13 for the first, 0.071 ± 0.11 for the second.

First: V51R
Second: N57I
The abundance fitness of the first is higher: 0.065 ± 0.06 for the first, -0.636 ± 0.47 for the second.

N57V and R32T are within error of each other in abundance fitness: -0.068 ± 0.095 for the first, -0.141 ± 0.083 for the second.

R32P and S7K are within error of each other in abundance fitness: -0.831 ± 0.23 for the first, -0.786 ± 0.21 for the second.

S7T and S7I are within error of each other in abundance fitness: -0.226 ± 0.1 for the first, -0.396 ± 0.1 for the second.

N29C and N29T are within error of each other in abundance fitness: -0.184 ± 0.12 for the first, -0.005 ± 0.082 for the second.

N29I and K2A are within error of each other in abundance fitness: -0.123 ± 0.16 for the first, -0.168 ± 0.062 for the second.

K2W and D71N are within error of each other in abundance fitness: 0.098 ± 0.078 for the first, 0.006 ± 0.083 for the second.

M3R and M3D are within error of each other in abundance fitness: -0.045 ± 0.038 for the first, -0.332 ± 0.28 for the second.

E74C and E74P are within error of each other in abundance fitness: -0.469 ± 0.16 for the first, -0.264 ± 0.1 for the second.

Going from E74R to N77H, the abundance fitness rises from -0.65 ± 0.092 to -0.175 ± 0.22.

R19T and R19S are within error of each other in abundance fitness: -0.092 ± 0.046 for the first, -0.123 ± 0.084 for the second.

R19H and R19L are within error of each other in abundance fitness: 0.064 ± 0.18 for the first, 0.025 ± 0.053 for the second.

R19M and Y64M are within error of each other in abundance fitness: 0.003 ± 0.1 for the first, -0.185 ± 0.11 for the second.

Compared with Y64P, L79T is higher in abundance fitness: -0.725 ± 0.22 for the first, -0.202 ± 0.096 for the second.

L79C and L79S are within error of each other in abundance fitness: 0.045 ± 0.13 for the first, 0.014 ± 0.052 for the second.

Going from L47E to N35W, the abundance fitness rises from -0.874 ± 0.22 to -0.222 ± 0.096.

Going from N35I to S43G, the abundance fitness rises from -0.457 ± 0.11 to 0 ± 0.049.

First: S43I
Second: Q22A
The abundance fitness of the first is lower: -0.919 ± 0.26 for the first, -0.066 ± 0.063 for the second.

Q22D and V76L are within error of each other in abundance fitness: -0.218 ± 0.11 for the first, -0.054 ± 0.06 for the second.

V76P and V76T are within error of each other in abundance fitness: -0.234 ± 0.12 for the first, -0.244 ± 0.067 for the second.

Compared with E26P, E26W is higher in abundance fitness: -0.371 ± 0.089 for the first, -0.197 ± 0.054 for the second.

T65Q and T65A are within error of each other in abundance fitness: 0.016 ± 0.043 for the first, -0.029 ± 0.052 for the second.

T65G and T65C are within error of each other in abundance fitness: -0.045 ± 0.043 for the first, -0.002 ± 0.087 for the second.

Going from N62F to A45D, the abundance fitness falls from 0.034 ± 0.13 to -0.306 ± 0.08.

Going from A45P to A45G, the abundance fitness rises from -0.77 ± 0.28 to -0.248 ± 0.05.

E41R and E41K are within error of each other in abundance fitness: 0.054 ± 0.053 for the first, 0.117 ± 0.094 for the second.

A18Q and A18I are within error of each other in abundance fitness: -0.936 ± 0.38 for the first, -0.77 ± 0.16 for the second.

A18N and M60N are within error of each other in abundance fitness: -0.627 ± 0.29 for the first, -0.723 ± 0.47 for the second.

Compared with M60V, R72C is lower in abundance fitness: 0.117 ± 0.12 for the first, -0.146 ± 0.14 for the second.

R72T and R72D are within error of each other in abundance fitness: -0.797 ± 0.21 for the first, -0.683 ± 0.17 for the second.

A4T and A4F are within error of each other in abundance fitness: -0.029 ± 0.088 for the first, -0.206 ± 0.14 for the second.

Going from S24R to S24F, the abundance fitness falls from -0.25 ± 0.051 to -0.837 ± 0.36.

First: S24L
Second: S24E
The abundance fitness of the first is lower: -0.776 ± 0.12 for the first, -0.067 ± 0.069 for the second.

Compared with S24C, S24Y is lower in abundance fitness: -0.39 ± 0.17 for the first, -0.856 ± 0.26 for the second.

M78G and M78Q are within error of each other in abundance fitness: -0.085 ± 0.065 for the first, -0.061 ± 0.098 for the second.

Compared with V44G, V44F is higher in abundance fitness: 0.046 ± 0.039 for the first, 0.182 ± 0.086 for the second.

First: N59T
Second: N59D
The abundance fitness of the first is lower: -0.338 ± 0.16 for the first, 0.245 ± 0.11 for the second.

First: L67E
Second: A15P
The abundance fitness of the first is lower: -0.792 ± 0.21 for the first, -0.025 ± 0.1 for the second.

L63F and L63A are within error of each other in abundance fitness: -0.632 ± 0.3 for the first, -0.79 ± 0.2 for the second.

L49V and L49T are within error of each other in abundance fitness: -0.314 ± 0.065 for the first, -0.216 ± 0.092 for the second.

Going from L49C to F23L, the abundance fitness falls from -0.097 ± 0.09 to -0.443 ± 0.061.

F23V and N48Q are within error of each other in abundance fitness: -0.144 ± 0.067 for the first, -0.205 ± 0.15 for the second.

S13M and V5K are within error of each other in abundance fitness: -0.441 ± 0.2 for the first, -0.279 ± 0.12 for the second.

V33E and V33M are within error of each other in abundance fitness: -0.014 ± 0.068 for the first, -0.034 ± 0.076 for the second.

V33H and V33L are within error of each other in abundance fitness: -0.043 ± 0.049 for the first, -0.001 ± 0.061 for the second.

Going from R30P to P36Q, the abundance fitness rises from -1.1 ± 0.21 to 0.123 ± 0.11.

P36L and I31A are within error of each other in abundance fitness: -0.774 ± 0.12 for the first, -0.855 ± 0.15 for the second.

I31L and E16C are within error of each other in abundance fitness: -0.149 ± 0.059 for the first, -0.271 ± 0.083 for the second.

First: E16M
Second: E16D
The abundance fitness of the first is lower: -0.207 ± 0.1 for the first, 0.068 ± 0.089 for the second.

E16H and E16Q are within error of each other in abundance fitness: -0.104 ± 0.12 for the first, -0.081 ± 0.11 for the second.

Compared with E16I, E16N is higher in abundance fitness: -0.384 ± 0.13 for the first, 0.161 ± 0.26 for the second.

D27S and D27H are within error of each other in abundance fitness: -0.127 ± 0.058 for the first, -0.121 ± 0.17 for the second.

Going from D27Y to D27I, the abundance fitness rises from -0.597 ± 0.2 to -0.043 ± 0.094.

D27N and H9V are within error of each other in abundance fitness: -0.49 ± 0.22 for the first, -0.712 ± 0.13 for the second.

H9Y and E61G are within error of each other in abundance fitness: -0.388 ± 0.13 for the first, -0.414 ± 0.25 for the second.

G11M and G11I are within error of each other in abundance fitness: -0.447 ± 0.13 for the first, -0.726 ± 0.23 for the second.

G11Q and L21I are within error of each other in abundance fitness: -0.276 ± 0.17 for the first, -0.425 ± 0.38 for the second.

Compared with V25A, L46T is lower in abundance fitness: 0.028 ± 0.05 for the first, -0.143 ± 0.085 for the second.

Compared with Q56L, Q56I is higher in abundance fitness: -0.19 ± 0.061 for the first, 0.097 ± 0.17 for the second.

G55F and W50P are within error of each other in abundance fitness: -0.765 ± 0.33 for the first, -1 ± 0.26 for the second.

W50V and W50S are within error of each other in abundance fitness: -0.923 ± 0.15 for the first, -0.734 ± 0.14 for the second.

E8T and E8N are within error of each other in abundance fitness: -0.162 ± 0.08 for the first, -0.06 ± 0.16 for the second.

L10M and L12W are within error of each other in abundance fitness: -0.805 ± 0.27 for the first, -0.431 ± 0.2 for the second.

L12H and L12N are within error of each other in abundance fitness: 0.274 ± 0.15 for the first, 0.139 ± 0.2 for the second.

S38L and L17R are within error of each other in abundance fitness: -0.781 ± 0.16 for the first, -1.03 ± 0.17 for the second.

For L17E, the abundance fitness was -0.204 ± 0.16.
